The target of this test is pseudo wild-type full-length CREB (unlabelled) (UniProt P16220). Nature of the test: SEC-MALS. (Size exclusion chromatography separates by hydrodynamic size, large species first.)

One may read the stoichiometry N as the number of molecules, sites or subunits per partner or assembly.

In turn, “pseudo wild-type full-length CREB (unlabelled) (from UniProt P16220-2 1-327) (natural protein)” gave a stoichiometry N of 2.
